Experimental data from the supplement of paper PMC11780869.

Test system: Bacillus subtilis
Test: cleaved RNA product abundance (RNA/gDNA barcode ratio) relative to median wild-type variant (ratio to wild type); higher = more accumulation of the downstream cleavage product
Method in brief: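 Reporter mRNAs (truncated aprE or tetM) carrying barcoded, mutagenized RNase Y cleavage-site windows were made from oligos with a 9% error rate and integrated into the B. subtilis chromosome. Cultures grew in LB at 37°C from OD600 0.0003 to 0.3. Cleaved RNA was gel-selected, reverse transcribed and barcode-sequenced alongside genomic DNA barcodes, with UMI collapsing. Cleaved product abundance is the RNA:gDNA barcode ratio per variant, scaled to the median wild-type variant.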

[1] = experiment (reporter, strain, medium): exp 4a: truncated aprE reporter, strain BJT201 with 2% xylose (RNase J1 expressed), cleavage site: cggR-gapA (positions -7 to +36 mutated)
[2] = experiment (reporter, strain, medium): exp 2b: truncated aprE reporter, strain BJT200, cleavage site: cggR-gapA (positions -7 to +36 mutated)
[3] = experiment (reporter, strain, medium): exp 8a: truncated aprE reporter, strain BJT201 with 2% xylose (RNase J1 expressed), cleavage site: glnRA (positions -5 to +31 mutated)
[4] = experiment (reporter, strain, medium): exp 6: tetM reporter, strain 168, cleavage site: cggR-gapA (positions -7 to +36 mutated)

Sequence	cleaved RNA product abundance [1]	other results
ACAGACGAAGGAGCCGCAAAGAAGTTATTAATGGATGAATAATCCCTCAATATAAAGATCTCTCACTTATTTAAA	0.0975	
ACAGACGAAGGAGCCGCAAAGAAGTTATAAAGGGATGAATAATGCCTCAATATAAATATCTCTCACTTATTTAAA		cleaved RNA product abundance [2]: 0.113
ACAGACGAAGGAGCCGCAAAGAAGTTACTAAGGGAAGAATAATCCCTCAATATAAATATCTCTCACTTATTTAAA	0.138	
ACAGACGAAGGAGCCGCAAAGAAGTTATTAAGGGATGAATATACCCTCAATATAAATATCTCTCACTTATTTAAA	0.485	
CGACATGTCCCGCTTCTTTCATTAATCCGTTAGCAAATGTTTTGTTATATACATTTACCTTTTAAGAGGAGGAAT		cleaved RNA product abundance [3]: 0.554
CGACATGTCCCGCTTCTTTCATTAATCCGTTAGCAACTGTTTTACTATATACATTTACGTTTTAAGAGGAGGAAT		cleaved RNA product abundance [3]: 0.77
ACAGACGAAGGAGCCGCAAAGAAGTTAATAAGGGATGAATAATCCCTCAATATAAATACCTCTCACTTATTTAAA	0.201	
ACAGACGAAGGAGCCGCAAAAAAATTATTAAGGGATGAATAATCCCTCATTATAAATATCTCTCACTTATTTAAA	0.267	
ACAGACGAAGGAGCCGCAAAGAAGTTATTAAGGCATGAATAATCCCTCAATATAAATTTCTCTCACTTATTTAAA	0.0847	cleaved RNA product abundance [2]: 0.0999
CGACATGTCCCGCTTCTTTCATTAAACCGTTAGCAACTGTTTCGCTATATACATTTACCTTTTAAGAGGAGGAAT		cleaved RNA product abundance [3]: 0.164
ACAGACGAAGGAGCCGCAAAGAATTTATTAAGGGATGAATAATTCCTCAATATAAATATCTCTCACTTATTTAAA	0.394	
CGACATGTCCCGCTTCTTTCATTAATCCGTTAGCAATTGTTTTGCTATATACATTTACCTTTTAAGAGGAGGAAT		cleaved RNA product abundance [3]: 1.24
CGACATGTCCCGCTTCTTTCATTACTCCGTTAGCAACTGTCTTGCTATATACATTTACCTTTTAAGAGGAGGAAT		cleaved RNA product abundance [3]: 0.946
ACAGACGAAGGAGCCGCAAAGAAGTTTTAAGGGATGAATAATCCCTCAATATAAATATCTCTCACTTATTTAAAG	0.15	
CGACATGTCCCGCTTCTTTCATTAATCCGTTAGCAAATGTTTAGCTATATACATTTACCTTTTAAGAGGAGGAAT		cleaved RNA product abundance [3]: 0.503
ACAGACGAAGGAGCCGCAAAGAAGTTATTATGGGATGAATAATCCCTCATTATAAATATCTCTCACTTATTTAAA	0.528	
CGACATGTCCCGCTTCTTTCATTAATCCGTTATCAACTGTTTTGCTATATACATTTTCCTTTTAAGAGGAGGAAT		cleaved RNA product abundance [3]: 0.122
CGACATGTCCCGCTTCTTTCATTAATACGTTAGCAACTGTTTTGCTATATACATGTACCTTTTAAGAGGAGGAAT		cleaved RNA product abundance [3]: 0.369
ACAGACGAAGGAGCCGCAAAGAAATTATTAAGGGATGAATAATCCCTCAATATAAAAATCTCTCACTTATTTAAA	0.568	
ACAGACGAAGGAGCCGCAAAGAAGTCATTAAGGGATGAATAATCCTTCAATATAAATATCTCTCACTTATTTAAA	0.189	

Sequence	cleaved RNA product abundance [1]	other results
ACAGACGAAGGAGCCGCAAAGAAGTTATTAAGGAATGAATAATCCCTCAATATAAATATCTCTCACTTATTTAAA	0.132	cleaved RNA product abundance [2]: 0.109; cleaved RNA product abundance [4]: 0.126
ACAGACGAAGGAGCCGCAAAGAAGTTATTAAGACATGAATAATCCCTCAATATAAATATCTCTCACTTATTTAAA	0.132	cleaved RNA product abundance [2]: 0.111
ACAGACGAAGGAGCCGCAAGGAAGTTATTAATGGATGAATAATCCCTCAATATAAATATCTCTCACTTATTTAAA	0.162	cleaved RNA product abundance [2]: 0.144
ACAGACGAAGGAGCCGCAAAGAAGTAAATAAGGAATGAATAATCCCTCAATATAAATATCTCTCACTTATTTAAA	0.0667	
CGACATGTCCCGCTTCTTTCATTAATCCGTTAGAAACTGTTTTGCTAGATACATTTACCTTTTAAGAGGAGGAAT		cleaved RNA product abundance [3]: 0.255
ACAGACGAAGGAGCCGCAAAGAAGTTATTAAGGGCTGAATAATCCCTCAATATAAATATCTCTCACTTATTTAAA	0.593	cleaved RNA product abundance [2]: 0.587; cleaved RNA product abundance [4]: 0.473
ACAGACGAAGGAGCCGCAAAGAAGTTATTAAGGGAAGAATATTCCCTCAATATAAATATCTCTCACTTATTTAAA	0.603	cleaved RNA product abundance [2]: 0.797
ACAGACGAAGGAGCCGCAAAGAAGTTATTAAGGGATGAATAATCCTTCAAGATAAATATCTCTCACTTATTTAAA	0.162	
ACAGACGAAGGAGCCGCAAAAAAGTTATTAAGGGATGAATAATCTCTCAATATAAATATCTCTCACTTATTTAAA	0.694	cleaved RNA product abundance [2]: 0.703; cleaved RNA product abundance [4]: 0.897
ACAGACGAAGGAGCCGCAAATAAGTTATTAAGGGATGAATAATCCCTCAGTATAAATATCTCTCACTTATTTAAA	0.303	
ACAGACGAAGGAGCCGCAAAGAAGTTATTAGGGGATGAATAATCCCTTAATATAAATATCTCTCACTTATTTAAA	0.808	
ACAGACGAAGGAGCCGCAAAGAAGTTATTAAGCGATGAAGAATCCCTCAATATAAATATCTCTCACTTATTTAAA	0.0967	
ACAGACGAAGGAGCCGCAAAGAAGTTAATAAGGGATGCATAATCCCTCAATATAAATATCTCTCACTTATTTAAA	0.301	
CGACATGTCCCGCTTCTTTCATTAATCCGTTAGGAAATGTTTTGCTATATACATTTACCTTTTAAGAGGAGGAAT		cleaved RNA product abundance [3]: 0.361
ACAGACGAAGGAGCCGCAAAGAAGTTATTAAGAGATGAATAATCCCTCAATTTAAATATCTCTCACTTATTTAAA	0.0573	cleaved RNA product abundance [2]: 0.0971
ACAGACGAAGGAGCCGCAAAGAAGATATTAAGGGATAAATAATCCCTCAATATAAATATCTCTCACTTATTTAAA	0.78	cleaved RNA product abundance [4]: 0.468
ACAGACGAAGGAGCCGCAAAGAAGTTATATAGGGATGAATAATCCCTCAATATAAATATCTCTCACTTATTTAAA	0.664	
ACAGACGAAGGAGCCGCAACGAATTTATTAAGGGATGAATAATCCCTCAATATAAATATCTCTCACTTATTTAAA	1.15	cleaved RNA product abundance [2]: 0.738
ACAGACGAAGGAGCCGCAAAGAAGTCATTAAGGGATAAATAATCCCTCAATATAAATATCTCTCACTTATTTAAA	0.308	cleaved RNA product abundance [2]: 0.195
ACAGACGAAGGAGCCGCAAAGAAGTTATTAAGGGATCACTAATCCCTCAATATAAATATCTCTCACTTATTTAAA	1.19	

Sequence	cleaved RNA product abundance [1]	other results
ACAGACGAAGGAGCCACAAAGAAGTTATTAAAGGATGAATAATCCCTCAATATAAATATCTCTCACTTATTTAAA		cleaved RNA product abundance [4]: 0.254
ACAGACGAAGGAGCCGCAAAGAAGTTATTAAGGGATGAATAATCCCTCAACATAAATATCTCTCACTTATTTAAA	0.345	cleaved RNA product abundance [2]: 0.22; cleaved RNA product abundance [4]: 0.137
ACAGACGAAGGAGCCGCAAAAAAGTTATTAAGGTATGAATAATCCCTCAATATAAATATCTCTCACTTATTTAAA	0.17	cleaved RNA product abundance [2]: 0.121
CGACATGTCCCGCTTCTTTCATTAATCCGATAGCAACTGTTTTGATATATACATTTACCTTTTAAGAGGAGGAAT		cleaved RNA product abundance [3]: 0.325
CGACATGTCCCGCTTCTTTCATTAATCCATTATCAACTTTTTTGCTATATACATTTACCTTTTAAGAGGAGGAAT		cleaved RNA product abundance [3]: 0.311
CGACATGTCCCGCTTCTTTCATTAATCCGTTTGCAACTGTTATGCTATATACATTTACCTTTTAAGAGGAGGAAT		cleaved RNA product abundance [3]: 0.428
ACAGACGAAGGAGCCGCAAATAAGTTATTAAGGTATGAATAATCCCTCAATATAAATTTCTCTCACTTATTTAAA	0.159	
ACAGACGAAGGAGCCGCAAAGAAGTTAATAAGGGATGAATTATCCCTCAATATAAATATCTCTCACTTATTTAAA	0.339	
ACAGACGAAGGAGCCGCAAAGAAGTTATTAAGGAATGAATAATCCCTCAATATAAATACCTCTCACTTATTTAAA		cleaved RNA product abundance [2]: 0.0997
ACAGACGAAGGAGCCGCAAAGAAGTTATTAAGGGATGATTAATCCCACAATATAAATATCTCTCACTTATTTAAA	0.276	
CGACATGTCCCGCTTCTTTCATTAATCAGTTAGCAACTGTATTGCTATATACATTTACCTTTTAAGAGGAGGAAT		cleaved RNA product abundance [3]: 0.59
ACAGACGAAGGAGCCGCAAAAAAGTTATTAACGGATTAATAATCCCTCAATATAAATATCTCTCACTTATTTAAA	0.142	
ACAGACGAAGGAGCCGCAAAGAAGTTATTAAGGGATCAATAATCCCTCACTATAAATATCTCTCACTTATTTAAA	0.224	
ACAGACGAAGGAGCCGCAAAGAAGTTCTTAAGGCATGAATAATCCCTCAATATAAATATCTCTCACTTATTTAAA	0.122	cleaved RNA product abundance [2]: 0.092
ACAGACGAAGGAGCCGCAAAGAAGTTATTAAGGGATGAATAATCCTCCAATATAAATATCTCTCACTTATTTAAA		cleaved RNA product abundance [2]: 0.127
ACAGACGAAGGAGCCGCAAAGAAGTTATTAAGCGATGAATAATCCCTCAATATAAATATTTCTCACTTATTTAAA	0.171	cleaved RNA product abundance [2]: 0.0865
CGACATGTCCCGCTTCTTTCATTAATCCGTTAGCAACCGTTTTGCTAAATACATTTACCTTTTAAGAGGAGGAAT		cleaved RNA product abundance [3]: 0.432
ACAGACGAAGGAGCCGCAAAGAAGTTATTAAGGGATGAATAGTCCCTCATTATAAATATCTCTCACTTATTTAAA	0.235	
ACAGACGAAGGAGCCGCAAAGTAGTTATTAAGGGATGAATAAGCCCTCAATATAAATATCTCTCACTTATTTAAA	0.448	
CGACATGTCCCGCTTCTTTCATTAATCCGTTAGCAACTATTTTGCTATATACATTTACCCTTTAAGAGGAGGAAT		cleaved RNA product abundance [3]: 0.937
